The target in experiment [1] is HAdV-D10 fiber protein (human adenovirus D 10 (HAdV-D10)). The experiment is described as follows: cryo-EM structure; purified HAdV-D10 virions; symmetry expansion, focused classification and refinement of penton and fiber shaft without symmetry (C1); 4.6 Å global, fiber shaft about 10 Å; AlphaFold3 fiber-penton model fitted as a rigid body.
Experiment [2] deals with HAdV-D10 penton base (human adenovirus D 10 (HAdV-D10)). The experiment is described as above.

The term stoichiometry N denotes the number of molecules, sites or subunits per partner or assembly. For the substance “HAdV-D10 fiber protein (natural protein)”, the stoichiometry N in experiment [1] was found to be 3.
Consider HAdV-D10 penton base (natural protein), for which the stoichiometry N in experiment [2] came out at 5.

Source of the values: article PMC13148777.
